A protein production outcome set (Wang et al. 2014)

Test: label from the status in PepcDB records
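Note: failed if final PepcDB status was selected cloned or expressed and not failed if soluble or beyond.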

| Sequence | protein production |
| --- | --- |
| MKRKLLAILLSVSMIATLVTACGSKEVSDNSAKEEGVTVEDVKAALKDENAVVLDARTQDAYAGWSTENNKLGGHIESSSGFSAAWLTCEYDDEANDDNRTREERLEICMEDKGITADTKVIIYDENGKDAAAVSEYLSGKGVKDIETFNLADWDGELVKYENYQTILPPSIVKKLIDGETVEEVGEVKDLKVLEFSWGTEEESGYLEGHVPTAIHINSDDVDDENNIYVLDKDEILLETVKKAGVTVDSTVVVTGAGLFSCHLATILKYLGVEDVYIMSGGANGWTDAGYEAEKGSNTPVAVEDFGTDKPLNPDYIDDVEEVSLLLTDKNAQVIDTRAYKEFTGESSGYSYVEEAGRLNGAIFGQEDGSAQGPDCTGSSMMYYENIDGTMRDASEILEMWSNSNVDVNKHLSFYCGGGYRAAAVMWYAQAMGLEDTSLYNDGWAGWIVYGKDAVKGTYEDPQPVN | failed |
| MKRKMENMKYTMSYIAKNFRVALMLSLMMLLCSCSSEDKLELHKGATLPIMQGIADNVPYIQSVEKELTYDLYDGVRITDVIFTYCAKPTRMIIAEVDLNKNVTIVTSTPDNKPEVGKILQQVTVQAEKAEAAGRKVILGTNGDFYSKKNDLWIPGGLFYKDGVAIKTEIGWEADHVFYMLKDGTAHITSVPEFKLVEREVVHAIGGWQRMVQDGEVVKNFTVNDNAMQFHPRTFVGVSADNRKVYLFVVDGRQPEYSNGMRLEDMMLLCQGAGCYQAFNMDGGGSTTMVRRVEKGSSVSFEVMNQPSDNPARSVINGLQVIEKTN | failed |
| MKRKSIFLTFGLLVLSWIGCVENDLPYPTIVGQITEMEVAGMTSCRILGASNTVEIKVADTIDLRDLRVEKLVVTEGMKVYPDSAACLDIAHFPDTGFVSADSLPAGMDTRMNFLNPVKFRLSLYQDYDWTVNVSRDIVRKIKIKNQVGSALIDDYTKNVIVYVDSTEQPSLRNIEIEELQLGSSIAQTTPDPSKVVDFTRPRVFYVTAFDETEEWTLSVQYPNANVQLTQLSAWTRRAYVSGSISKGEVEAEYRKAGETVWESVLPNEISYEGEDFLIMMTHLAAGTNYEYRLTMNGTVGEILTFTTDTIMQVPNLGFDDWVMKNEKTWYPNATLDDADHFWDSGNEGASIASRNPTAPETGDVVKGRAVRMASDYISIASKFAAGNIYTGDFVGLAGIEGAELDFGQPYTGRPSALKGYYRYTPGVIDQAKAPYDALMGQTDSCHIYIGLFDWSAPFRVNTTTGTFVDLTWNNESMIAFGELKSNEATGSEYKQFKINLTYRDYFTHPKYILIVASASKYGDYFTGSTSSVMYLDECELVFE | failed |
| MKRKTAVKWLAVLAGAGLLYWGNKTYLNVSPKEIRVWVLSFGVFAPLMFIGISIVRPLVLFPVSVISIAGGLAFGPLLGTLYTLFGSMCASAVSFFAAGLFSAKKNGHYERLEAIQKQMEDNGFFYIFLLRILPINFDFVSYAAGLSNVKALPYFAATAVGIIPGTIALNVLGASFLAGNLPAFFMVLALYIVFISLPFIFRKKMQNLFQESN | failed |
| MKRKVQVKNITIGEGRPKICVPIIGKNKKDIIKEAKELKDACLDIIEWRVDFFENVENIKEVKEVLYELRSYIHDIPLLFTFRSVVEGGEKLISRDYYTTLNKEISNTGLVDLIDVELFMGDEVIDEVVNFAHKKEVKVIISNHDFNKTPKKEEIVSRLCRMQELGADLPKIAVMPQNEKDVLVLLEATNEMFKIYADRPIITMSMSGMGVISRLCGEIFGSALTFGAAKSVSAPGQISFKELNSVLNLLHKSIN | not failed |
| MKRKYFPFSAILGQEDLKKALLLNAVNPRIGGVLVRGEKGTAKSTAVRALGALLAAARNGSGGEGEVVVTLPLNATEEMVAGGIDFQQTMKEGRRVFQPGLLAKAHKGILYVDEVNLLDDHLVDIVLDAASSGENRVEREGITLSHPSLFVLAGTMNPEEGELRPQLLDRFGLCVEVRGEADPALRVDLMLRREAFDREPEEFSERYRAEEERLGRTIADAQSLLPSVRIPSHLRGFISELCRNSNVAGHRADLVIEQAARANAALRGSREVSVEDVTKVAGFALVHRRRDPVPPPEQKPQEPERQEEQSRDEQSRQEKPEERGDEPQQPQEGDDRRDGNDDSGNEERSQPENRDAAEQQERPDNEGQDELFSIGQSFRVRSIATPKDRKMRRGSGKRSRSRVSQKQGRYTKSTMPRGNNDIALDATLRAAAPFQRHRENPNGMAVVLQNEDIREKIREKRLGNLLIFVVDASGSMGARGRMAASKGAVMSLLLDAYQKRDKLAMVSFRKNEAFVNLPVTSSIELAARMLKEMPVGGRTPFSAGLLKGYEIAQNYLRKEPGGRPLIILVTDGKANRAIGQGKPLDEVFTISEKISREERIRFLVVDTEEPGLVTFGLAKKIAGLLDAWYYRIDDLRADTLVSIVKTMMP | failed |
| MKRVALIHGWGGSFAATWEADGWSDALRAAGFDPVGVTIAGHGPEGGSHDPADYADLAGDLAAKLPAGLHGAIGFSLGTKLLLELEARSPGRNGRLVLGGIGDNLFAPEAAGPALVAALRGEATTPPPQVAALLAYAEKSASDPACLAAILERPANPVLTEDRLATAQAPILIFNSRDDAVAQPDTRLCRAMPHASHRLIEGPGHVALTSDARFREAAVEFLSK | failed |
| MKRVANWLAITGFVVHAISLVAGLQGHTWETISKGYFLQMLSWSMLLIYLFVWWKFKLDFLSALASPFALLIYLSSFKVAEVQSKLPESLSGLFFGLHIGTLFLSFGLMAMAFGAGVLFLHMERKIKTKEPLTGFRKDLPALSTFDRVNRLCVVWGFPLFTLGIVSGFVWAHPAWGKVITWDPKEIVSLAVWVMYALLFHQRVALGWQGRKPAVMVIWIFAVSVFSLIVVNVFMPTHHSFIQQ | failed |
| MKRYQGRIIATVLAMTFIMFWNFLFYGVLGNKINWTVDLLFTLVTLISVWWLTLYIDESNQLVYKLKESEKKYKELSSETNRIMDNLQEIVFQTDRIGYITFLNQAWTTLTGYSVEESLGTMYNDYFDHEERISNHLIAQLKNKEPEGRIEVLYHRKDGSKFWGEVHYKLYYKNGQFTGSLGTLTDVTERKKAEMELFKSNQRLAMQSQKLAMAGQLAAGIAHEVRNPLTSVNGFLQLMKAEYPDRKDYFDIIFSEIKRIDSVLGELLVLAKPHQVQFKKIKINSVLQQVATLLETNAVLSHIKIEKAFQHGEEWEINGDENQIKQVFINLIKNGIEAMPDGGKITISSKAEGDCVKISIKDEGGGISQADLAKLGEPFFSTKEEGTGLGLTICLNIIGAHNGEMKIDSKLGEGSTFHILLPVDKGAASEENDIQQGCCSRATIK | failed |
| MKSADQLMSDIQLSLQALFQKIQPEMLESMEKQGVTPAQLFVLASLKKHGSLKVSEIAERMEVKPSAVTLMADRLEQKNLIARTHNTKDRRVIDLSLTDEGDIKFEEVLAGRKAIMARYLSFLTEEEMLQAAHITAKLAQAAETDEKQNMKRGNG | not failed |
| MKSALSDFILGKKGIYGILHIIILLMSLFLVISISIDTFKGIPFYTQSSYMKIQLWICIWFLFDFVLEFFLAKHKWRYIRTHFIFLLVAIPYQNIIAYYGWTFSPEVTYLLRFIPLLRGGYALAIVVGWLTYNRASSLFVSYLTMLLATVYFASLAFFVLEHKVNPLVTDYGDALWWAFMDVTTVGSNIIAMTTTGRVLSVLLAALGMMMFPIFTVYITNLIQQSNQKKKQYYAEEEEKTASA | failed |
| MKSDYELSLRDYIAIIKDRALVLGVSAAVILAATVAVALMVPPIYQSTGTILVESQQISPELVSTNNTSFADERIEVIRQRVMTRDNLLRIIGKYDLFADKRFSESDKIDQMRNAIVVETLTTYVRGRGEATVAFNVSFEHKQPQVAKEVADELVTLFLNENLKQRTERANETTEFLTQEANKLGAELASLENQLADFKQAHANALPEHQTLRMNMLSRAELEFREVDRDYKAAQEELRYLELELSAANAGLATKVAEGTRPTRADLPEDLPSLKAEYAQLLTRYKDAHPDVVAVKRKIQALEASGGRTAAVSTVSLDAARVRAKMSAAQVRIASLAEQKRELTRKMEGYEAEILEAPQVERGLVTLMRDHDNARKKYEEIRAKEMGAKITESLEQENKAERFVLLEPPLLPEKPIKPNRKKIAALGLVLAPAGGGALVMLLEMLNQRVRGVGALESLLGKRVLVALPYIDTRADVARRKRWRNRLILAALALAAIMIGLVHVFYMPLDVLL | failed |
| MKSENVNKRDEYQRVFSCFDKSHQGKVSVSTIERCVDAIKSGKRAVVDQEDTTNPNPEESTDDKSLELEDFVKLVEEGEEADKEKDLKEAFKLYEESEGITPKSLKRMLSLLGESKSLKDCEVMISQFDINRDGIINFDEFRAMMQ | failed |
| MKSKGRNRLLSLIICICIAFAFSSCVKNDLPYPVVRLSITGFEVNGQIGSAVINNEERTVTVDLLDSVDLKKVIVTRFDYSEEANTDLKVNTTIDLSSPKEVVLSLYQDYRWKIIANQTVERVFSVKNQVGGAVIDEKARQAIVYVNKNTMLNKITVKDLKLGPISSTVSPDFITLKDFTQEQKVNVTFKGKTEEWSLYAFITDKVVFTNSADGWTNVAWLYGEGQEDVVNGFEIREASSEEWTRVDQDIVVQNGVNFYVCVPHLKADTEYVCRALVDGTEDRGEEITFRTTAAIPLTGGTFDNWNQSGKVWNPWGSNETPFWDTGNQGATTLGDSNSVPTEDIWSGKTTGMAAKLESKFVGVGSAGKLAAGNLFVGKYVATDGTNGILNFGQSFSAYPTHLKGYYKYQPGVIDNSSIEYNYLKGRTDTCSIYIAIGDWDSPIEIRTKPSNRKLFDKNDKHVIAYAEFTSGTPVAVYKEFDLKLEYRATNRKPTYIVLVCSASKYGDFFTGASGSVLYVDEFSLEYDYDN | failed |
| MKSLTPHLLLCSFFTSIAPALGEGFRNKRVAFIPTAAAHEEYTAYVDSARSSWKELGSNITDVDIARMPLRTATEALEQAEIIYLSGGNSFYLLDCLRSTEIDQIIRGRLAEGAILVGESAGAIVCSPNIAYIQPMDRVPDNYSQADYTGLNLVDFFPVPHYLAPPFVKSSKEVVAQHASLPLELMNNAEAVIVEGPQRTKISSEHQ | failed |
| MKSPFYRCQNTTSVEKGNSAVMGGVLFSTGLLGNLLALGLLARSGLGWCSRRPLRPLPSVFYMLVCGLTVTDLLGKCLLSPVVLAAYAQNRSLRVLAPALDNSLCQAFAFFMSFFGLSSTLQLLAMALECWLSLGHPFFYRRHITLRLGALVAPVVSAFSLAFCALPFMGFGKFVQYCPGTWCFIQMVHEEGSLSVLGYSVLYSSLMALLVLATVLCNLGAMRNLYAMHRRLQRHPRSCTRDCAEPRADGREASPQPLEELDHLLLLALMTVLFTMCSLPVIYRAYYGAFKDVKEKNRTSEEAEDLRALRFLSVISIVDPWIFIIFRSPVFRIFFHKIFIRPLRYRSRCSNSTNMESSL | failed |
| MKSQFLLSVKEHMLTRYYANKTIESYLFWIKRFIVFHQFAHPSKLSEDDVIRFLSHLAIDEKVAVKTQALALNAISFLYRDFFKTPLSLDMRFQKSLTEKKLPVVLTRDEVRRFV | failed |
| MKTAELIFVPLPETGHLLSTIEFGKRLLNLDRRISMITILSMNLPYAPHADASLASLTASEPGIRIISLPEIHDPPPIKLLDTSSETYILDFIHKNIPCLRKTIQDLVSSSSSSGGGSSHVAGLILDFFCVGLIDIGREVNLPSYIFMTSNFGFLGVLQYLPERQRLTPSEFDESSGEEELHIPAFVNRVPAKVLPPGVFDKLSYGSLVKIGERLHEAKGILVNSFTQVEPYAAEHFSQGRDYPHVYPVGPVLNLTGRTNPGLASAQYKEMMKWLDEQPDSSVLFLCFGSMGVFPAPQITEIAHALELIGCRFIWAIRTNMAGDGDPQEPLPEGFVDRTMGRGIVCSWAPQVDILAHKATGGFVSHCGWNSVQESLWYGVPIATWPMYAEQQLNAFEMVKELGLAVEIRLDYVADGDRVTLEIVSADEIATAVRSLMDSDNPVRKKVIEKSSVARKAVGDGGSSTVATCNFIKDILGDHF | failed |
| MKTDIILAGVGGQGILSIAAAIGSAALTNNLYLKQAETHGMSQRGGDVQSFLRLSDAPIYSDLIPIGGADLILSVEPMEALRYLPYLKPDGYVVTNTVPFINIPNYPETTSVISKIESLPHHVLIDADSIARDEVGNVRASNFVMLGAASPFIEIPFDYLAGGIEAIFSRKGQEVVDMNLKALNAGREFALRYAAGK | not failed |
